How the values were obtained:
mouse IgG (mouse) [1] = experiment: sandwich immunoassay (SAM + primary Ab + mouse IgG + Ab-AP) on an Au-coated LTCC macrochip, sonicated for 2 min; CV of PAPR; antigen concentration not stated
mouse IgG (mouse) [2] = experiment: sandwich immunoassay (SAM + primary Ab + mouse IgG + Ab-AP) on an Au-coated LTCC macrochip, not sonicated; CV of PAPR; antigen concentration not stated
mouse IgG (mouse) [3] = experiment: sandwich immunoassay (SAM + primary Ab + mouse IgG + Ab-AP) on an Au-coated silicon wafer macrochip; CV of PAPR; antigen concentration not stated

For “secondary antibody (to mouse IgG) conjugated to alkaline phosphatase”, the signal (mouse IgG (mouse) [1]) was 30 Acm^-2, the signal (mouse IgG (mouse) [2]) was 34.6 Acm^-2 and the signal (mouse IgG (mouse) [3]) was 27.7 Acm^-2.

— patent US20030108922A1
